Assay in all cases: yeast display titration; KD, yeast
Experiment [1] concerns the target Lysozyme.
The target of experiment [2] is Rabbit IgG.
Experiment [3] concerns the target Goat IgG.

The values below come from patent US20160244745A1 (published 2016).

The term Kd denotes the concentration at which binding is half-saturated. A higher Kd goes with weaker binding. As for KFWATVFSYGNLFEVPVYAETLDEALELAEWQYSGAYEYVTRVRP (designed binder) [Lysozyme A0.3.2], in experiment [1], the equilibrium dissociation constant (Kd) is approximately 1550 nM.

For the molecule KFWATVHSVHGYFEVPVYAETLDEALELAFGQYGNALGYVTRVRP (designed binder) [Rabbit IgG 3.2.3], in experiment [2], the dissociation constant Kd worked out at 1.5 nM. In other words, the single-digit nanomolar range.

Molecule KFWATVYDYDADYYFEVPVYAETLDEALELAVWRYYSNHSDYLVTRVRP (designed binder) [Goat IgG 2.2.1] had a Kd in experiment [3] of 0.2 nM.
